The target in the test is FZD1/2/4/5/7/8. Briefly: cell-based or functional assay.

B1: Fab-Dia (paratopes 5016; 2540/2542) (bispecific antibody)
heavy: EVQLVESGGGLVQPGGSLRLSCAASGFNIHSSSIHWVRQAPGKGLEWVAATYSSFGSITYADSVKGRFTISADTSKNTAYLQMNSLRAEDTAVYYCARYHHPFGYALDYWGQGTLVTVSSASTKGPSVFPLAPSSKSTSGGTAALGCLVKDYFPEPVTVSWNSGALTSGVHTFPAVLQSSGLYSLSSVVTVPSSSLGTQTYICNVNHKPSNTKVDKKVEPKSCDKTHTGGSGGEVQLVESGGGLVQPGGSLRLSCAASGFTISYSSIHWVRQAPGKGLEWVASISPYYGYTYYADSVKGRFTISADTSKNTAYLQMNSLRAEDTAVYYCARSSYFPWFSAMDYWGQGTLVTVSSGGGGSDIQMTQSPSSLSASVGDRVTITCRASQSVSSAVAWYQQKPGKAPKLLIYSASSLYSGVPSRFSGSRSGTDFTLTISSLQPEDFATYYCQQYYWPITFGQGTKVEIK
light: DIQMTQSPSSLSASVGDRVTITCRASQSVSSAVAWYQQKPGKAPKLLIYSASSLYSGVPSRFSGSRSGTDFTLTISSLQPEDFATYYCQQGVYLFTFGQGTKVEIKRTVAAPSVFIFPPSDEQLKSGTASVVCLLNNFYPREAKVQWKVDNALQSGNSQESVTEQDSKDSTYSLSSTLTLSKADYEKHKVYACEVTHQGLSSPVTKSFNRGECGGGGSEVQLVESGGGLVQPGGSLRLSCAASGFTISSYYIHWVRQAPGKGLEWVASIYSSYGYTSYADSVKGRFTISADTSKNTAYLQMNSLRAEDTAVYYCARTVRGSKKPYFSGWAMDYWGQGTLVTVSSGGGGSDIQMTQSPSSLSASVGDRVTITCRASQSVSSAVAWYQQKPGKAPKLLIYSASSLYSGVPSRFSGSRSGTDFTLTISSLQPEDFATYYCQQYYFLITFGQGTKVEIK
Take B1: the TOPFLASH EC50 stood at 0.4 nM and the TOPFLASH Maximal Signal (% Wnt3a maxima) (% Wnt3a maxima) came to 42.

B2: CH3 (Dia-CH3-Dia; paratopes 5019; 2539) (bispecific antibody)
chain: MNLLLILTFVAAAVAEFEVQLVESGGGLVQPGGSLRLSCAASGFNIGSSSIHWVRQAPGKGLEWVASIYSAFASTSYADSVKGRFTISADTSKNTAYLQMNSLRAEDTAVYYCARYHFPFGFALDYWGQGTLVTVSSGGGGSDIQMTQSPSSLSASVGDRVTITCRASQSVSSAVAWYQQKPGKAPKLLIYSASSLYSGVPSRFSGSRSGTDFTLTISSLQPEDFATYYCQQGVYLFTFGQGTKVEIKDKTHTKVEPKTSDKTHTCPPCPGQPREPQVYTLPPSREEMTKNQVSLTCLVKGFYPSDIAVEWESNGQPENNYKTTPPVLDSDGSFFLYSKLTVDKSRWQQGNVFSCSVMHEALHNHYTQKSLSLSPGKGTTAASGSSGGSSSGAGRTEVQLVESGGGLVQPGGSLRLSCAASGFNISYSSIHWVRQAPGKGLEWVAYISSYYGYTYYADSVKGRFTISADTSKNTAYLQMNSLRAEDTAVYYCARAHYFPWAGAMDYWGQGTLVTVSSGGGGSDIQMTQSPSSLSASVGDRVTITCRASQSVSSAVAWYQQKPGKAPKLLIYSASSLYSGVPSRFSGSRSGTDFTLTISSLQPEDFATYYCQQYSWGPFTFGQGTKVEIK
Molecule B2 displayed a TOPFLASH Maximal Signal (% Wnt3a maxima) (% Wnt3a maxima) of 22.

B3: CT0003 (Table 5: FZD Diabody-Fc-LRP scFv; paratopes 5016; 2539, 2542) (bispecific antibody)
chain 1: MNLLLILTFVAAAVAEFEVQLVESGGGLVQPGGSLRLSCAASGFNISSYYIHWVRQAPGKGLEWVASIYSSYGYTSYADSVKGRFTISADTSKNTAYLQMNSLRAEDTAVYYCARTVRGSKKPYFSGWAMDYWGQGTLVTVSSGGGGSDIQMTQSPSSLSASVGDRVTITCRASQSVSSAVAWYQQKPGKAPKLLIYSASSLYSGVPSRFSGSRSGTDFTLTISSLQPEDFATYYCQQYSWGPFTFGQGTKVEIKLEDKTHTKVEPKSSDKTHNCPPCPAPELLGGPSVFLFPPKPKDTLMISRTPEVTCVVVDVSHEDPEVKFNWYVDGVEVHNAKTKPREEQYNSTYRVVSVLTVLHQDWLNGKEYKCKVSNKALPAPIEKTISKAKGQPREPQVYTLPPIRELMTSNQVSLSCAVKGFYPSDIAVEWESNGQPENNYKTTPPVLDSDGSFFLVSKLTVDKSRWQQGNVFSCSVMHEALHNHYTQKSLSLSPGKSGSETPGTSESATPESGGGEVQLVESGGGLVQPGGSLRLSCAASGFNIHSSSIHWVRQAPGKGLEWVAATYSSFGSITYADSVKGRFTISADTSKNTAYLQMNSLRAEDTAVYYCARYHHPFGYALDYWGQGTLVTVSSGTTAASGSSGGSSSGADIQMTQSPSSLSASVGDRVTITCRASQSVSSAVAWYQQKPGKAPKLLIYSASSLYSGVPSRFSGSRSGTDFTLTISSLQPEDFATYYCQQGVYLFTFGQGTKVEIK
chain 2: MNLLLILTFVAAAVAEFEVQLVESGGGLVQPGGSLRLSCAASGFNISYSSIHWVRQAPGKGLEWVAYISSYYGYTYYADSVKGRFTISADTSKNTAYLQMNSLRAEDTAVYYCARAHYFPWAGAMDYWGQGTLVTVSSGGGGDIQMTQSPSSLSASVGDRVTITCRASQSVSSAVAWYQQKPGKAPKLLIYSASSLYSGVPSRFSGSRSGTDFTLTISSLQPEDFATYYCQQYYWPITFGQGTKVEIKLEDKTHTKVEPKTSDKTHTCPPCPAPELLGGPSVFLFPPKPKDTLMISRTPEVTCVVVDVSHEDPEVKFNWYVDGVEVHNAKTKPREEQYNSTYRVVSVLTVLHQDWLNGKEYKCKVSNKALPAPIEKTISKAKGQPREPMVFDLPPSREEMTKNQVSLWCMVKGFYPSDIAVEWESNGQPENNYKTTPPVLDSDGSFFLYSKLTVDKSRWQQGNVFSCSVMHEALHNHYTQKSLSLSPGKSGSETPGTSESATPESGGGEVQLVESGGGLVQPGGSLRLSCAASGFNIHSSSIHWVRQAPGKGLEWVAATYSSFGSITYADSVKGRFTISADTSKNTAYLQMNSLRAEDTAVYYCARYHHPFGYALDYWGQGTLVTVSSGTTAASGSSGGSSSGADIQMTQSPSSLSASVGDRVTITCRASQSVSSAVAWYQQKPGKAPKLLIYSASSLYSGVPSRFSGSRSGTDFTLTISSLQPEDFATYYCQQGVYLFTFGQGTKVEIK
Turning to B3, the TOPFLASH % Wnt Maxima is 42 % Wnt Maxima and the TOPFLASH EC50 came to 0.4 nM.

Source of the values: patent US20260250398A1.
